The values that follow come from patent publication US20130130268A1 (published 2013).

This assay concerns the target T1, His-tagged PDGFR alpha (aminoacids 1-834 of human PDGFR alpha fused to a 6×histidine tag) (human, UniProt P16234 24-834).
T1 construct: Complete extracellular and transmembrane regions plus part of the intracellular domain; Expressed in HeLa cells, purified from lysates and immobilized on the IAsys biosensor; The cDNA encodes residues 1-834; also called immobilized His-tagged PDGFR alpha; truncated conformer of PDGFR alpha
Kind of assay: IAsys optical biosensor, immobilized His-tagged PDGFR alpha. On the procedure:
A detailed characterization of rHumaab interaction with human PDGFR alpha was performed on an optical biosensor, using as a molecular bait a homemade truncated conformer of this receptor containing the complete extracellular and transmembrane regions joined to a poly-histidine tail (HIS tag) replacing part of the intracellular domain, and serving both as an anchor to the biosensor surface and as a spacer. Preservation of proper folding of the immobilized receptor into a naive-like conformation was verified by monitoring the interaction with its natural binding partner (PDGF-BB) and with two mouse monoclonal antibodies specific for conformational PDGFR alpha epitopes (FIG. 6a). Using this approach, both kinetics and equilibrium parameters of the interaction between PDGF-BB, each rHumaab and PDGFR alpha were determined. […] Additionally, the analysis of association and dissociation rate constants for soluble ligands binding to PDGFR alpha, further defined the mechanistic properties of the macromolecular recognition process. […] Conversely, differences in equilibrium constants among rHumaab were reflected by corresponding differences in dissociation rate constants (kdiss=, 0.035 s⁻¹, 0.02 s⁻¹, and 0.003 s⁻¹, respectively for Vk13B8, Vk16F4 and Vlambda16F4).

T1 sequence (P16234 other isoform, or with tags, fused parts or gaps): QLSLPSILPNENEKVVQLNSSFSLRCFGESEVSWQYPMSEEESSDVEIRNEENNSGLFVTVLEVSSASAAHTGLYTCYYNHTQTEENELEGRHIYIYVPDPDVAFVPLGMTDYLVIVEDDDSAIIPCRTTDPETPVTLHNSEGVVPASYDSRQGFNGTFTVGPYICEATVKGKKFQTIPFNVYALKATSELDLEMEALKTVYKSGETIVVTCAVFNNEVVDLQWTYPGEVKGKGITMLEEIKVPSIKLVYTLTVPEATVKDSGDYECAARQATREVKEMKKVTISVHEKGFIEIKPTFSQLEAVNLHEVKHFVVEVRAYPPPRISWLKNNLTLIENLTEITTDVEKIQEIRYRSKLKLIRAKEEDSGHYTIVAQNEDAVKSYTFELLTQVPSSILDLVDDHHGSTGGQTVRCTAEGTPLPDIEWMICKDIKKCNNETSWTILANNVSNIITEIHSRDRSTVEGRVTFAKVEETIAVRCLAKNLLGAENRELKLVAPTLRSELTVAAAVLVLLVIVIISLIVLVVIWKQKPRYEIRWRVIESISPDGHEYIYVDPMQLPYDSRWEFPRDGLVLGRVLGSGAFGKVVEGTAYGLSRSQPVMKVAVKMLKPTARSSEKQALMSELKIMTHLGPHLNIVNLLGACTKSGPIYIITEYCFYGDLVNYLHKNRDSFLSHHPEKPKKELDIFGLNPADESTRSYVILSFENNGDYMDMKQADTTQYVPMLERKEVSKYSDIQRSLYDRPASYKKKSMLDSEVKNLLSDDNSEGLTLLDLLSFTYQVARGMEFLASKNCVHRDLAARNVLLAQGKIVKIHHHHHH

B1: human PDGF-BB (ligand)
chain 1: SLGSLTIAEPAMIAECKTRTEVFEISRRLIDRTNANFLVWPPCVEVQRCSGCCNNRNVQCRPTQVQLRPVQVRKIEIVRKKPIFKKATVTLEDHLACKCETVAAARPVT
chain 2: SLGSLTIAEPAMIAECKTRTEVFEISRRLIDRTNANFLVWPPCVEVQRCSGCCNNRNVQCRPTQVQLRPVQVRKIEIVRKKPIFKKATVTLEDHLACKCETVAAARPVT
notes: The name BB means a homodimer of B chains
In the case of B1, the dissociation constant Kd came to 0.23 nM and the kon turned out to be 3e+07 M⁻¹ s⁻¹.

B2: Vlambda16F4 rHumaab (antibody, human IgG1, V domains shown)
VH: GLVKPLETLSLTCSVSGGSVSDGSYFWNWIRQPPGKGLEWIGYAYSRGTTNYSPSLKGRITISVDKSKNQISLKLTSVTPADTAVYYCARDSFEIWGQGTMVTV
VL: QSALTQPASVSGSPGQSITISCTGTSSDVGGYNYVSWYQHHPGKAPKLMIYEVSHRPSGVSNRFSGSKSGNTASLTISGLQAEDEADYYCSSYTSSSHVVFGGGTKLTVL
notes: Tested as a whole human IgG1 made in CHO cells (pDR12 vector, b12 constant regions, with Fc)
The molecule B2 showed a Kd of 16.6 nM and a koff of 0.003 s⁻¹.

B3: Vk13B8 rHumaab (antibody, human IgG1, V domains shown)
VH: GLVKPLETLSLTCSVSGGSVSDGSYFWNWIRQPPGKGLEWIGYAYSRGTTNYSPSLKGRITISVDKSKNQISLKLTSVTPADTAVYYCARDSFEIWGQGTMVTV
VL: DIQMTQSPSSLSASVGDRVTITCRASQGISNYLAWFQQKPGKAPKSLIYAASSLQSGVPSKFSGSGSGTDFTLTISSLQPEDFATYYCQQYNSFPYTFGQGTKLEIK
notes: Tested as a whole human IgG1 made in CHO cells (pDR12 vector, constant regions of antibody b12, with Fc); also called Vκ13B8; recombinant human monoclonal auto-antibody Vk13B8
Regarding B3, the dissociation constant Kd is 184 nM and the off-rate constant (koff) came to 0.035 s⁻¹.

B4: Vk16F4 rHumaab (antibody, human IgG1, V domains shown)
VH: GLVKPLETLSLTCSVSGGSVSDGSYFWNWIRQPPGKGLEWIGYAYSRGTTNYSPSLKGRITISVDKSKNQISLKLTSVTPADTAVYYCARDSFEIWGQGTMVTV
VL: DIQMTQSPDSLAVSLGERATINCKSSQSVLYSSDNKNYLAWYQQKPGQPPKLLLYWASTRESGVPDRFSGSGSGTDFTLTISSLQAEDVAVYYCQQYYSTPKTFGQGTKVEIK
notes: Tested as a whole human IgG1 made in CHO cells (pDR12 vector, b12 constant regions, with Fc); also called Vκ16F4; rHumaab VK16F4
With B4, the Kd was found to be 71.4 nM and the koff was 0.02 s⁻¹.

For orientation: Kd means the constant that tells how readily two partners part at equilibrium. Low values mean a tighter complex, high ones a looser complex. The kon is a measure of how fast the partners come together. In general, koff refers to the first-order rate constant of dissociation. Low values mean a long-lived complex, high ones a short-lived complex.
